From patent US20200230168, “NUCLEIC ACID OLIGOMERS AND USES THEREFOR” (Queensland University of Technology, published 2020)

Key:
[1] = molecular target: hSSB1 (Homo sapiens, UniProt Q9BQ15 Q9BQ15:1-211); assay: SPR
[2] = molecular target: THOC4 (ALYREF) (UniProt Q86V81 Q86V81:2-257); assay: SPR

hSSB1, sequence (Q9BQ15 whole entry, one chain of several): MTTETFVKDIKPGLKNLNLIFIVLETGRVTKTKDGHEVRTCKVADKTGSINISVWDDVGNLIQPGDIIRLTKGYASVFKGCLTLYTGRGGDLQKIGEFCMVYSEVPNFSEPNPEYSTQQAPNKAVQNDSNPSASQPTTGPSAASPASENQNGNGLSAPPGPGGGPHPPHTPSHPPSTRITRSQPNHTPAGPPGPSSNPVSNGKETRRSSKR

B1: LSA_ATG 5' truncation 17 nt (ssRNA)
RNA: AGGCAGCAGUACGACGG
modifications: 2'-OMe all, full PS
binding signal [1]: 0.68 normalized Rmax | binding signal [2]: 0.8 normalized Rmax

B2: DKLS965031 (SEQ 17) (ssRNA)
RNA: GAGUAAACAUUCUGUGUGGAGUC
modifications: 2'-OMe all, full PS
binding signal [1]: 1.35 normalized Rmax | binding signal [2]: 0.64 normalized Rmax

B3: In3E3 5' truncation 13 nt (ssRNA)
RNA: GCCGGACUUGCCU
modifications: 2'-OMe all, full PS
binding signal [1]: 0.22 normalized Rmax | binding signal [2]: 0.01 normalized Rmax

B4: LSA_ATG 5' truncation 15 nt (ssRNA)
RNA: GCAGCAGUACGACGG
modifications: 2'-OMe all, full PS
binding signal [1]: 0.46 normalized Rmax | binding signal [2]: 0.31 normalized Rmax

B5: In3E3 5' truncation 11 nt (ssRNA)
RNA: CGGACUUGCCU
modifications: 2'-OMe all, full PS
binding signal [1]: 0.09 normalized Rmax | binding signal [2]: 0.01 normalized Rmax

B6: DKLS420640 (SEQ 57) (ssRNA)
RNA: CCUCUCUGCCGCUCUUGCCU
modifications: 2'-OMe all, full PS
binding signal [1]: 0.48 normalized Rmax | binding signal [2]: 0.03 normalized Rmax

B7: Open_A 3' truncation 18 nt (ssRNA)
RNA: GUGCAUGGAAUCACGGAG
modifications: 2'-OMe all, full PS
binding signal [1]: 1.03 normalized Rmax | binding signal [2]: 0.39 normalized Rmax

B8: DKLS687764 (SEQ 34) (ssRNA)
RNA: ACAUCGUUACCAGACAGUGUUA
modifications: 2'-OMe all, full PS
binding signal [1]: 1.47 normalized Rmax | binding signal [2]: 0.75 normalized Rmax

B9: LSA_ATG 5' truncation 16 nt (ssRNA)
RNA: GGCAGCAGUACGACGG
modifications: 2'-OMe all, full PS
binding signal [1]: 0.64 normalized Rmax | binding signal [2]: 0.49 normalized Rmax

B10: DKLS371273 (SEQ 7) (ssRNA)
RNA: UACCGCGUGCGACCCUCU
modifications: full PS
binding signal [1]: 1.05 normalized Rmax | binding signal [2]: 0.81 normalized Rmax

B11: DKLS459014 (SEQ 62) (ssRNA)
RNA: CCAGUGAGCCGAACUUCUCU
modifications: 2'-OMe all, full PS
binding signal [1]: 0.55 normalized Rmax | binding signal [2]: 0.26 normalized Rmax

B12: DKLS370480 (SEQ 25) (ssRNA)
RNA: UCUUAUGUUUCCGAACCGUU
modifications: 2'-OMe all, full PS
binding signal [1]: 0.69 normalized Rmax | binding signal [2]: 0.34 normalized Rmax

B13: DKLS646683 (SEQ 54) (ssRNA)
RNA: GCCCGUCUGGCGCAUAGCUA
modifications: 2'-OMe all, full PS
binding signal [1]: 0.98 normalized Rmax | binding signal [2]: 0.85 normalized Rmax

B14: Open_A 3' truncation 17 nt (ssRNA)
RNA: GUGCAUGGAAUCACGGA
modifications: 2'-OMe all, full PS
binding signal [1]: 2.06 normalized Rmax | binding signal [2]: 1 normalized Rmax

B15: Open_A 3' truncation 19 nt (ssRNA)
RNA: GUGCAUGGAAUCACGGAGU
modifications: 2'-OMe all, full PS
binding signal [1]: 1.24 normalized Rmax | binding signal [2]: 0.47 normalized Rmax

B16: LSA_ATG ZEN (DKLS649218) (ssRNA)
RNA: CAGAGGCAGCAGUACGACGG
modifications: 2'-OMe all, ZEN at both ends
binding signal [1]: 0.15 normalized Rmax

B17: DKLS687118 (SEQ 15) (ssRNA)
RNA: CUGCCUAAGUAAAAAGUGUAAAC
modifications: 2'-OMe all, full PS
binding signal [1]: 1.21 normalized Rmax | binding signal [2]: 0.51 normalized Rmax

B18: DKLS693540 (SEQ 27) (ssRNA)
RNA: GGCGAAUGAGACUUCUCUUA
modifications: 2'-OMe all, full PS
binding signal [1]: 1.64 normalized Rmax | binding signal [2]: 0.89 normalized Rmax

B19: LSA_ATG 3' truncation 19 nt (ssRNA)
RNA: CAGAGGCAGCAGUACGACG
modifications: 2'-OMe all, full PS
binding signal [1]: 0.78 normalized Rmax | binding signal [2]: 0.92 normalized Rmax

B20: DKLS463357 (SEQ 59) (ssRNA)
RNA: CCUGUCAGCCGCACUUGCCU
modifications: 2'-OMe all, full PS
binding signal [1]: 0.95 normalized Rmax | binding signal [2]: 0.39 normalized Rmax

B21: DKLS354527 (SEQ 21) (ssRNA)
RNA: CAGCAGCAGAGUCUUCAUCAU
modifications: 2'-OMe all, full PS
binding signal [1]: 0.91 normalized Rmax | binding signal [2]: 0.37 normalized Rmax

B22: LSA_ATG 5' truncation 19 nt (ssRNA)
RNA: AGAGGCAGCAGUACGACGG
modifications: 2'-OMe all, full PS
binding signal [1]: 1.02 normalized Rmax | binding signal [2]: 1.1 normalized Rmax

B23: DKLS658030 (SEQ 8) (ssRNA)
RNA: UCUCCCAGCAUGUGCCAU
modifications: full PS
binding signal [1]: 0.51 normalized Rmax | binding signal [2]: 0.52 normalized Rmax

B24: DKLS675388 (SEQ 51) (ssRNA)
RNA: UUGACAGAUUAAGUCCAUUC
modifications: 2'-OMe all, full PS
binding signal [1]: 0.89 normalized Rmax | binding signal [2]: 0.15 normalized Rmax

B25: DKLS765774 (SEQ 16) (ssRNA)
RNA: CCAUCUGUAAUUACAAAAUUAAA
modifications: 2'-OMe all, full PS
binding signal [1]: 1.93 normalized Rmax | binding signal [2]: 0.97 normalized Rmax

B26: DKLS331584 (SEQ 26) (ssRNA)
RNA: UGCUAUCUUAUCACCUUUAG
modifications: 2'-OMe all, full PS
binding signal [1]: 0.48 normalized Rmax | binding signal [2]: 0.15 normalized Rmax

B27: DKLS399970 (SEQ 61) (ssRNA)
RNA: CCAGUAAGCCAGACUUGCAU
modifications: 2'-OMe all, full PS
binding signal [1]: 0.64 normalized Rmax | binding signal [2]: 0.3 normalized Rmax

B28: DKLS491049 (SEQ 32) (ssRNA)
RNA: GCUCCAGCAUCUGCUGCUUC
modifications: 2'-OMe all, full PS
binding signal [1]: 0.65 normalized Rmax | binding signal [2]: 0.26 normalized Rmax

B29: DKLS629224 (SEQ 12) (ssRNA)
RNA: GGUCGUAAUACUUUCACUUA
modifications: 2'-OMe all, full PS
binding signal [1]: 0.97 normalized Rmax | binding signal [2]: 0.47 normalized Rmax

B30: DKLS687192 (SEQ 28) (ssRNA)
RNA: UCCUGGAUCCUUCACCAAUG
modifications: 2'-OMe all, full PS
binding signal [1]: 1.08 normalized Rmax | binding signal [2]: 0.76 normalized Rmax

B31: DKLS712428 (SEQ 64) (ssRNA)
RNA: CCAGGGAGCCGGACUUGGCG
modifications: 2'-OMe all, full PS
binding signal [1]: 0.7 normalized Rmax | binding signal [2]: 0.51 normalized Rmax

B32: Open_L ZEN (DKLS665920) (ssRNA)
RNA: CACGUACCUUAGUGCCUCAC
modifications: 2'-OMe all, ZEN at both ends
binding signal [2]: -0.15 normalized Rmax

B33: DKLS687118 (SEQ 35) (ssRNA)
RNA: ACAUGGUUCCCCGACAGUGUUA
modifications: 2'-OMe all, full PS
binding signal [1]: 1.7 normalized Rmax | binding signal [2]: 0.72 normalized Rmax

B34: DKLS484655 (SEQ 22) (ssRNA)
RNA: UGUGCUAUUCUGUGAAUU
modifications: 2'-OMe all, full PS
binding signal [1]: 0.43 normalized Rmax | binding signal [2]: 0.22 normalized Rmax

B35: DKLS696616 (SEQ 9) (ssRNA)
RNA: UCUCCCAGCGUGCGCCAU
modifications: 2'-OMe all, full PS
binding signal [1]: 0.79 normalized Rmax | binding signal [2]: 1.12 normalized Rmax

B36: DKLS687764 (SEQ 14) (ssRNA)
RNA: UCAAGGAAGAUGGCAUUUCU
modifications: 2'-OMe all, full PS
binding signal [1]: 1.12 normalized Rmax | binding signal [2]: 0.55 normalized Rmax

B37: DKLS481254 (SEQ 31) (ssRNA)
RNA: CAGCAGCAGAGUAUUUAUCAU
modifications: 2'-OMe all, full PS
binding signal [1]: 1.1 normalized Rmax | binding signal [2]: 0.46 normalized Rmax

B38: DKLS447399 (SEQ 63) (ssRNA)
RNA: CUAGUAAGUCGGACUUGCCU
modifications: 2'-OMe all, full PS
binding signal [1]: 1.22 normalized Rmax | binding signal [2]: 1.22 normalized Rmax

B39: DKLS656105 (SEQ 56) (ssRNA)
RNA: GGCACGUCCGCCAGUCAUGU
modifications: 2'-OMe all, full PS
binding signal [1]: 0.73 normalized Rmax | binding signal [2]: 0.23 normalized Rmax

B40: DKLS951212 (SEQ 30) (ssRNA)
RNA: GGGACGCGGCGCUCGGUCAU
modifications: 2'-OMe all, full PS
binding signal [1]: 2.13 normalized Rmax | binding signal [2]: 1.35 normalized Rmax

B41: LSA_ATG both-end truncation 14 nt (ssRNA)
RNA: AGGCAGCAGUACGA
modifications: 2'-OMe all, full PS
binding signal [1]: 1.05 normalized Rmax | binding signal [2]: 1.02 normalized Rmax

B42: DKLS649547 (SEQ 53) (ssRNA)
RNA: GCGGGUCCUCUACGCACUGA
modifications: 2'-OMe all, full PS
binding signal [1]: 1.55 normalized Rmax | binding signal [2]: 0.85 normalized Rmax

B43: DKLS459520 (SEQ 60) (ssRNA)
RNA: CCACUGAGCCCGACUUCCCU
modifications: 2'-OMe all, full PS
binding signal [1]: 0.63 normalized Rmax | binding signal [2]: 0.03 normalized Rmax

B44: LSA_ATG 3' truncation 16 nt (ssRNA)
RNA: CAGAGGCAGCAGUACG
modifications: 2'-OMe all, full PS
binding signal [1]: 0.46 normalized Rmax | binding signal [2]: 0.53 normalized Rmax

B45: Open_A 3' truncation 16 nt (ssRNA)
RNA: GUGCAUGGAAUCACGG
modifications: 2'-OMe all, full PS
binding signal [1]: 0.66 normalized Rmax | binding signal [2]: 0.29 normalized Rmax

B46: DKLS659460 (SEQ 52) (ssRNA)
RNA: GCCACCCGUCGGUUGCUAGA
modifications: 2'-OMe all, full PS
binding signal [1]: 1.65 normalized Rmax | binding signal [2]: 0.89 normalized Rmax

B47: DKLS684387 (SEQ 29) (ssRNA)
RNA: UGUCAUAUUCCUGGAUCCUU
modifications: 2'-OMe all, full PS
binding signal [1]: 1.38 normalized Rmax | binding signal [2]: 0.87 normalized Rmax

B48: LSA_ATG both-end truncation 18 nt (ssRNA)
RNA: AGAGGCAGCAGUACGACG
modifications: 2'-OMe all, full PS
binding signal [1]: 0.96 normalized Rmax | binding signal [2]: 0.81 normalized Rmax

B49: DKLS679059 (SEQ 55) (ssRNA)
RNA: GGGCCUCCCGCACUUGAGAU
modifications: 2'-OMe all, full PS
binding signal [1]: 0.85 normalized Rmax | binding signal [2]: 0.37 normalized Rmax

B50: DKLS374580 (SEQ 58) (ssRNA)
RNA: CCUGUGUGCCCCUCUUCCCU
modifications: 2'-OMe all, full PS
binding signal [1]: 0.68 normalized Rmax | binding signal [2]: 0.12 normalized Rmax

B51: LSA_ATG 3' truncation 18 nt (ssRNA)
RNA: CAGAGGCAGCAGUACGAC
modifications: 2'-OMe all, full PS
binding signal [1]: 0.64 normalized Rmax | binding signal [2]: 0.71 normalized Rmax

B52: DKLS832163 (SEQ 11) (ssRNA)
RNA: UCUCCCAGCAUGUGCCAU
modifications: 2'-OMe all, full PS
binding signal [1]: 0.31 normalized Rmax | binding signal [2]: 0.33 normalized Rmax

B53: ASO_ATG (DKLS421748) (ssRNA)
RNA: GUCUCCGUCGUCAUGCUGCC
modifications: 2'-OMe all, full PS
binding signal [1]: 0.64 normalized Rmax | binding signal [2]: 0.33 normalized Rmax

B54: DKLS784557 (SEQ 10) (ssRNA)
RNA: UACCGCGUGCGACCCUCU
modifications: 2'-OMe all, full PS
binding signal [1]: 0.69 normalized Rmax | binding signal [2]: 0.49 normalized Rmax

B55: LSA_ATG 5' truncation 18 nt (ssRNA)
RNA: GAGGCAGCAGUACGACGG
modifications: 2'-OMe all, full PS
binding signal [1]: 0.77 normalized Rmax | binding signal [2]: 1.06 normalized Rmax

B56: LSA_ATG both-end truncation 16 nt (ssRNA)
RNA: GAGGCAGCAGUACGAC
modifications: 2'-OMe all, full PS
binding signal [1]: 0.67 normalized Rmax | binding signal [2]: 0.44 normalized Rmax

B57: DKLS463500 (SEQ 23) (ssRNA)
RNA: UAAGCUGUUCUAUGUGUU
modifications: 2'-OMe all, full PS
binding signal [1]: 0.74 normalized Rmax | binding signal [2]: 0.32 normalized Rmax

B58: LSA_ATG 3' truncation 17 nt (ssRNA)
RNA: CAGAGGCAGCAGUACGA
modifications: 2'-OMe all, full PS
binding signal [1]: 1.19 normalized Rmax | binding signal [2]: 1.46 normalized Rmax
